Results on one molecule are retold here after article PMC3719477 (ACS Chemical Biology, 2013).

For this assay, the target named is KIX domain (residues 586–672) of human CREB binding protein (CBP) (human, UniProt Q92793 586-672). Briefly: NMR solution structure.
KIX domain (residues 586–672) of human CREB binding protein (CBP), sequence (Q92793 586-672): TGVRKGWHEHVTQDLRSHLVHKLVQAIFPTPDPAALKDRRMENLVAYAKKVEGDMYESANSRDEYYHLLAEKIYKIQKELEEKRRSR

With DAGNILPSDIMDFVLKNTP (peptide, UniProt Q03164 2840-2858, looked up), the binding result is “binds”.
